Ends that are not written are not given here.
Experiments:
[1] = target: human OGF receptor (OGFr), native, in nuclear preparations of human cells and tissues (human) (UniProt Q9NZT2); test: competition with [3H]-[Met5]-enkephalin, PANC-1 nuclear homogenates; IC50/Kd
[2] = target: T1, human OGF receptor (OGFr), native, in nuclear preparations of human cells and tissues (human, UniProt Q9NZT2 1-662, limits assumed); test: radioligand saturation binding, nuclear-enriched fraction of human placenta
T1 construct: Native receptor in nuclear homogenates (placenta, PANC-1, MIA PaCa-2, Capan-1, BxPC-3, pancreatic tissue, head and neck tissue); also called zeta opioid receptor; receptor for OGF
T1 chain: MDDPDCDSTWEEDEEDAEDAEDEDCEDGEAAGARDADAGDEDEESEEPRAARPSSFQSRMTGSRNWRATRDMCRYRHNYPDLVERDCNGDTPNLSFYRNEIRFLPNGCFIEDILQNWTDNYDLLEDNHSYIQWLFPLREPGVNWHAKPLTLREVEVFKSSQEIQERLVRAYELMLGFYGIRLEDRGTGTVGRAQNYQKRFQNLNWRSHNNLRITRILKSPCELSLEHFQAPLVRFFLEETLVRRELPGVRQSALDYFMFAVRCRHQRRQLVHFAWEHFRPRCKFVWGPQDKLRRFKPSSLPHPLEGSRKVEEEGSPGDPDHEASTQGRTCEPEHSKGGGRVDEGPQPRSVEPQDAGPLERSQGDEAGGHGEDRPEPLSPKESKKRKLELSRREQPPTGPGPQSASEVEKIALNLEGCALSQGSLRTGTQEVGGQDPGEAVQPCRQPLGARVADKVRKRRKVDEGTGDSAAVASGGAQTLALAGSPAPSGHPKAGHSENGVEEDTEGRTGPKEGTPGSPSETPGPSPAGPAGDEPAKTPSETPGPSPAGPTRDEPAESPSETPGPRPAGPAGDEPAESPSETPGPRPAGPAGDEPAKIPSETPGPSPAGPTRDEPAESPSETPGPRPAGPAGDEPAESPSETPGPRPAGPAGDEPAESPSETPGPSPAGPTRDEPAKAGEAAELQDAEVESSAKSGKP

[3] = target: T2, 12-GST fusion protein (GST fused to rat OGFr, all 580 amino acids, from clone #12) (rat, UniProt Q9QXY4 1-580); test: [3H]-[Met5]-enkephalin saturation binding, filter assay, purified 12-GST fusion protein, 22 C
T2 construct: The order GST then OGFr follows the pGEX-3X vector; also called purified fusion protein from the rat OGFr cDNA clone #12; not shown: glutathione-S-transferase (GST) of the pGEX-3X expression vector
T2 sequence: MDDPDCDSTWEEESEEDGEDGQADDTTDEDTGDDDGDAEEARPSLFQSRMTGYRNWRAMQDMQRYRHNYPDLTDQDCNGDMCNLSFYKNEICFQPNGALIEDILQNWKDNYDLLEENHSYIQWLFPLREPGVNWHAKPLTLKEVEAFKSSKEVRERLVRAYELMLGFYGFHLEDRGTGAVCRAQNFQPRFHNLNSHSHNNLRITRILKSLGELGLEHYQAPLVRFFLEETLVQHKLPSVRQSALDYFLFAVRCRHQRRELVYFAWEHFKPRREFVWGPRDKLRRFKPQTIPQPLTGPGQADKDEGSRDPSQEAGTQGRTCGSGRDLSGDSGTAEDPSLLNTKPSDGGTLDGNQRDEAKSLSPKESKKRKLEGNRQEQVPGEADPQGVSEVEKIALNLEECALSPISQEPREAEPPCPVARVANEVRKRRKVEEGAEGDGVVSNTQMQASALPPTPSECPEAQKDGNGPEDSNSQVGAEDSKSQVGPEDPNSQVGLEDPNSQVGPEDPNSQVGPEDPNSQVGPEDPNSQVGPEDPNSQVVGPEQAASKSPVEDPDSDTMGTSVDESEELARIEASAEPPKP
Experimental: Fusion proteins (80-120 ng/tube) were incubated for 30 min with shaking at 22° C. Non-specific binding was measured in the presence of unlabeled [Met⁵]-enkephalin. In some assays, NTX (10⁻³ M) was added to the reaction mixture to monitor opioid antagonist blockade of binding. Binding was terminated by filtering homogenates through Whatman GF/B filters. Saturation isotherms were plotted using GraphPad Prism software (GraphPad Software Inc., San Diego, Calif.).

[4] = target: T1, human OGF receptor (OGFr), native, in …; test: competition with [3H]-[Met5]-enkephalin, PANC-1 nuclear homogenates; IC50/Kd
Experimental: Each concentration was run in triplicate and every compound was tested twice.
Competition experiments using 1 or 2 nM [³H]

Work on ICI-174, 568 (peptide) yielded an IC50 [1] greater than 100 µM.

Molecule “[D-Ala^2, N-Me-Phe^4, Gly^5-ol]-enkephalin (peptide)” has an IC50 [1] greater than 100 µM.

For [D-Pen^2, Pen^5]-enkephalin (peptide), the IC50 [1] was greater than 100 µM.

B1: [Met^5]-enkephalin (opioid growth factor) (peptide, UniProt P01210 100-104, looked up)
peptide: YGGFM
modifications: also: [3H] label on radioligand form
notes: domain: [Met^5]-enkephalin; only the pentapeptide stood in the assay; also called OGF; [^3H]-[Met^5]-enkephalin
With B1 the Kd [2] was 0.0123 µM and the Kd [3] was 0.0028 µM.

B2: Leucine enkephalin (peptide, UniProt P01210 230-234, looked up)
peptide: YGGFL
notes: domain: Leucine enkephalin
In the case of B2, the IC50 [4] is reported as greater than 100 µM.

B3: dynorphin A1-8 (peptide, UniProt P01213 207-214, looked up)
peptide: YGGFLRRI
notes: domain: Dynorphin A1-8; 1-8 counts on dynorphin A, not on the precursor
B3 gave an IC50 [4] greater than 100 µM.

Reference: patent US20080050363A1 (published 2008)
